The assay addresses T1, full-length human CLEC9A on transfected 293F cells (human, UniProt Q6UXN8 1-241).
T1 construct: also called cell surface CLEC9A
As to the kind of experiment: flow cytometry on 293F cells transfected with full-length human CLEC9A. A general note: In flow cytometry, cells or beads pass a laser one at a time.

T1 sequence (Q6UXN8 whole entry): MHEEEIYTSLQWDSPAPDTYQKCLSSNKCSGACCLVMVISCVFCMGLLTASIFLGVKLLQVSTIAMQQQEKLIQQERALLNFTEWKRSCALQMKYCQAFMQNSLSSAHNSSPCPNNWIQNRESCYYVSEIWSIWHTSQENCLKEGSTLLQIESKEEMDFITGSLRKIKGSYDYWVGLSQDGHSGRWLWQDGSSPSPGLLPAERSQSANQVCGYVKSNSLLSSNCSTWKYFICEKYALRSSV

B1: humanised anti-CLEC9A Ab (Ab1) (antibody, human IgG4 S228P, kappa, V domains shown)
VH: EVQLLESGGGLVQPGGSLRLSCAASGFTFNNYWLAWVRQAPGKGLEWVASITTAAGGTYYPDSVKGRFTISRDNSKNTLYLQMNSLRAEDTAVYYCTRVGRDIWDYWGQGTLVTVSS
VL: DIVMTQTPLSLSVTPGQPASISCKSSQSLLHSDGNTYLHWYLQKPGQPPQLLIWRISNRFSGVPDRFSGSGSGTDFTLKISRVEAEDVGVYYCLQSSHFPPTFGGGTKVEIKR
notes: Human IgG4 / kappa; also called Humanised CLEC9A Ab; humanised anti-CLEC9A antibody
In the case of B1, the binding result is listed as “binds”.

B2: human/rat chimaeric anti-CLEC9A Ab (clone 4C6) (antibody, V domains shown)
VH: EVQLVESGGGLVQPGGSLKLSCVASGFTFNNYWLAWIRQAPRKGLEWVASITTAAGGTYYPDSVKGRFTISRDNAKSTLYLQMNSLTSEDTATYYCTRVGRDIWDYWGQGVVVTVSS
VL: EILMTQTPVSLPVSLGGQVSFSCRSSQSLLHSDGNTYLHWYLQKPGQSPQLLIWRISNRFSGVPDRFSGSGSGTDFTLKISRVEPEDLGVYYCLQSSHFPPTFGGGTNLEIKR
notes: also called human chimeric anti-Clec9A Ab; original human chimaeric anti-CLEC9A Ab
With B2, the binding result is “binds”.
